Experimental findings from patent US20260209350A1 (Alector, published 2026) are described below.

Positions count from the first letter of the chain named.

The target in one test is T1, mouse TREM2 on cells (mouse, UniProt Q99NH8 19-227).
T1 construct: whole, on cells; Used for the recombinant protein on BWZ/BW cells (with mouse DAP12) and for the native protein on mouse macrophages and dendritic cells; the cell type stands under assay; also called mTREM2; mTrem2
T1 sequence (looked up): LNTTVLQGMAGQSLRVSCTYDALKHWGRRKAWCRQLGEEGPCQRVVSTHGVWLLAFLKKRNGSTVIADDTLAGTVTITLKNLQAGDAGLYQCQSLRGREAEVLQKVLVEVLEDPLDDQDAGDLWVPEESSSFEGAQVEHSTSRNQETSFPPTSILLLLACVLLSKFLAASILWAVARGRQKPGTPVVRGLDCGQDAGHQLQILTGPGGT
The experiment in a line: FACS, mTrem2 cells. (In general: In flow cytometry, cells or beads pass a laser one at a time.)

The target in test [1] is T2, human TREM2 Fc fusion protein (human, UniProt Q9NZC2 19-174).
T2 construct: also called hTREM2-Fc; not shown: Fc part not specified
T2 sequence: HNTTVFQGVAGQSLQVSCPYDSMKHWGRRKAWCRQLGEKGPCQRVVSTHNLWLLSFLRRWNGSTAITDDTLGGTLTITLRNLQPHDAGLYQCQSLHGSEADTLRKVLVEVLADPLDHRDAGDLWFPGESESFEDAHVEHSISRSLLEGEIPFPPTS
As to the kind of experiment: ForteBio or MSD-SET, avid. Background: BLI is a label-free optical method that tracks binding on a fibre tip over time.

Test [2] has as its target T3, mouse TREM2 Fc fusion protein (mouse, UniProt Q99NH8 19-171).
T3 construct: also called mTREM2-Fc; not shown: Fc part not specified
T3 sequence (looked up): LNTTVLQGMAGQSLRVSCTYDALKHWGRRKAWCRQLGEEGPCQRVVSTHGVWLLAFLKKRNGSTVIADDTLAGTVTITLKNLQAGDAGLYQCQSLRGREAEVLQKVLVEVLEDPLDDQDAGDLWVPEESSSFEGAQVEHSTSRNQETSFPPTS
The experiment in a line: ForteBio or MSD-SET, avid.

The target of test [3] is T4, human monomeric His tagged TREM2 protein (human, UniProt Q9NZC2 19-174).
T4 construct: also called hTREM2-HIS
T4 sequence: T2 sequence
The experiment in a line: ForteBio or MSD-SET, monovalent.

B1: Ab58 (antibody, human IgG1, V domains shown)
VH: EVQLVQSGAEVKKPGESLKISCKGSGYSFTSYWIGWVRQMPGKGLEWMGIIYPGDSDTRYSPSFQGQVTISADKSISTAYLQWSSLKASDTAMYYCARLGIYSTGATAFDIWGQGTMVTVSS
VL: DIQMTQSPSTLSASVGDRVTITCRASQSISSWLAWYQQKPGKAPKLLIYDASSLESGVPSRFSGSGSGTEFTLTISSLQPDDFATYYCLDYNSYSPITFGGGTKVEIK
notes: human IgG1
For orientation: Kd means the concentration at which binding is half-saturated. In turn, B1 gave an MFI with mouse TREM2 on cells of 1870 MFI. The results for the Kd in test [1] and in test [3] were 0.575 nM and 2.73 nM, respectively. In test [2], the binding result is given as “no binding”.

B2: Ab71 (antibody, human IgG1, V domains shown)
VH: QVQLVQSGAEVKKPGASVKVSCKASGYTFTSYYMHWVRQAPGQGLEWMGIINPSGGSTSYAQKFQGRVTMTRDTSTSTVYMELSSLRSEDTAVYYCARDISTHDYDLAFDIWGQGTMVTVSS
VL: EIVMTQSPGTLSLSPGERATLSCRASQSVSSSYLAWYQQKPGQAPRLLIYGASNRATGIPDRFSGSGSGTDFTLTISRLEPEDFAVYYCQQAGSHPFTFGGGTKVEIK
notes: human IgG1
B2: the MFI with mouse TREM2 on cells was 804 MFI. The dissociation constant (Kd) in test [1] worked out at 2.77 nM; in test [3], 64.7 nM. Also, the binding result in test [2] is “no binding”.

B3: Ab55 (antibody, human IgG1, V domains shown)
VH: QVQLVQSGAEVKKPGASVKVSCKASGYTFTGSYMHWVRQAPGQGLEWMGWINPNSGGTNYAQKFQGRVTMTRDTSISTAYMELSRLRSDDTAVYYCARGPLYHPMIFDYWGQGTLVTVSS
VL: EIVLTQSPATLSLSPGERATLSCRASQSVSSYLAWYQQKPGQAPRLLIYDASNRATGIPARFSGSGSGTDFTLTISSLEPEDFAVYYCQQLSTYPLTFGGGTKVEIK
notes: human IgG1
Turning to B3, the MFI in the test with mouse TREM2 on cells turned out to be 6220 MFI. The Kd was determined as 2.22 nM in test [1], 1.17 nM in test [2] and 91.7 nM in test [3].

B4: Ab57 (antibody, human IgG1, V domains shown)
VH: QVQLVQSGAEVKKPGASVKVSCKASGYTFTNYGISWVRQAPGQGLEWMGWISAYNGNTNYAQKLQGRVTMTTDTSTSTAYMELRSLRSDDTAVYYCARGPTKAYYGSGSYVVFDPWGQGTLVTVSS
VL: B3 VL with N53K, L91V, T93L, Y94F
notes: human IgG1
With B4, in the test with mouse TREM2 on cells, the MFI was found to be 10200 MFI. In addition, the values for the Kd in test [1], in test [2] and in test [3] were 0.436 nM, 0.598 nM and 18.3 nM, respectively.

B5: Ab68 (antibody, human IgG1, V domains shown)
VH: QVQLVESGGGVVQPGRSLRLSCAASGFTFSSYGMHWVRQAPGKGLEWVALIWYDGSNKYYADSVKGRFTISRDNSKNTLYLQMNSLRAEDTAVYYCAKPGSMTDYWGQGTLVTVSS
VL: B3 VL with L91R, S92A, T93N, L96I
notes: human IgG1
As for B5, the MFI in the test with mouse TREM2 on cells turned out to be 2100 MFI. The figures for the Kd in test [1], in test [2] and in test [3] were 6.68 nM, 3.26 nM and 109 nM, respectively.

B6: Ab66 (antibody, human IgG1, V domains shown)
VH: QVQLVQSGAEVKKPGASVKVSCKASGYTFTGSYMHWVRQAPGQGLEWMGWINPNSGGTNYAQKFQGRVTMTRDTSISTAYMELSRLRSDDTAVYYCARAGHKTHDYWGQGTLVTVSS
VL: B3 VL with A9G, L91R, T93A, L96I
notes: human IgG1
Molecule B6 showed an MFI with mouse TREM2 on cells of 4100 MFI. In addition, the Kd in test [1] came out at 1.98 nM; in test [2], 3.88 nM; in test [3] it was 60.7 nM.

B7: Ab7 (antibody, human IgG1, V domains shown)
VH: QVQLVQSGAEVKKPGASVKVSCKASGYTFTSYYMHWVRQAPGQGLEWMGIINPSGGSTTYAQKFQGRVTMTRDTSTSTVYMELSSLRSEDTAVYYCARTSSKERDYWGQGTLVTVSS
VL: B3 VL with N53K, L91R, S92I, T93S, L96I
notes: human IgG1
As to B7, the MFI with mouse TREM2 on cells stood at 10900 MFI. Also, the values for the Kd in test [1], in test [2] and in test [3] were 1.05 nM, 1.11 nM and 33.4 nM, respectively.

B8: Ab78 (antibody, human IgG1, V domains shown)
VH: QVQLVESGGGVVQPGRSLRLSCAASGFTFSSYGMHWVRQAPGKGLEWVAVIWYDGSNKYYADSVKGRFTISRDNSKNTLYLQMNSLRAEDTAVYYCARTPYPWIYFDLWGRGTLVTVSS
VL: B3 VL with L91A, S92D, T93N, Y94W, L96F
notes: human IgG1
For B8, in the test with mouse TREM2 on cells, the MFI turned out to be 433 MFI. Also, the values for the Kd in test [1] and in test [3] were 0.851 nM and 37.3 nM, respectively. In test [2], the binding result is recorded as “no binding”.

B9: Ab69 (antibody, human IgG1, V domains shown)
VH: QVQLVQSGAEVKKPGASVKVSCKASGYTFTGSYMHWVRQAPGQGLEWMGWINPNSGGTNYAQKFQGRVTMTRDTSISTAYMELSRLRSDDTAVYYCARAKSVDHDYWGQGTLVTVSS
VL: B3 VL with L91R, S92A, T93D, L96I
notes: human IgG1
Molecule B9 gave an MFI with mouse TREM2 on cells of 629 MFI. Further, the Kd in test [1] is 3.75 nM; in test [2], 3.4 nM; in test [3], 59.7 nM.

B10: Ab63 (antibody, human IgG1, V domains shown)
VH: QVQLVQSGAEVKKPGASVKVSCKASGYTFTSYGISWVRQAPGQGLEWMGWISTYNGNTNYAQKLQGRVTMTTDTSTSTAYMELRSLRSDDTAVYYCARGSGSGYDSWYDWGQGTLVTVSS
VL: DIQMTQSPSSVSASVGDRVTITCRASQGIDSWLAWYQQKPGKAPKLLIYAASSLQSGVPSRFSGSGSGTDFTLTISSLQPEDFATYYCQQAYSLPPTFGGGTKVEIK
notes: human IgG1
Consider B10, for which the MFI in the test with mouse TREM2 on cells was 1720 MFI. For the same molecule, the figures for the Kd in test [1] and in test [3] were 1.13 nM and 49.6 nM, respectively. For the same molecule, the binding result in test [2] is listed as “no binding”.

B11: Ab84 (antibody, human IgG1, V domains shown)
VH: B10 VH
VL: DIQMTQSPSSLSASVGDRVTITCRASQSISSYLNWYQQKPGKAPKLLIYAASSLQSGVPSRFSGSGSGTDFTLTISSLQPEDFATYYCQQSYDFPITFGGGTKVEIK
notes: human IgG1
On to B11, for which the MFI with mouse TREM2 on cells worked out at 799 MFI. For the same molecule, the values for the Kd in test [1] and in test [3] were 1.16 nM and 60.4 nM, respectively. The binding result in test [2] is on record as “no binding”.

B12: Ab5 (antibody, human IgG1, V domains shown)
VH: QVQLVQSGAEVKKPGASVKVSCKASGYTFTSYYIHWVRQAPGQGLEWMGIINPSGGSTSYAQKFQGRVTMTRDTSTSTVYMELSSLRSEDTAVYYCARAPQESPYVFDIWGQGTMVTVSS
VL: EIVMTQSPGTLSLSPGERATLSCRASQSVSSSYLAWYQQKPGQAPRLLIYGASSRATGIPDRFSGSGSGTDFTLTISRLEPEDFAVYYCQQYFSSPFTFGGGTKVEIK
notes: human IgG1
For the molecule B12, in the test with mouse TREM2 on cells, the MFI amounted to 310 MFI. Also, the Kd came out at 0.697 nM in test [1] and 30 nM in test [3]. Also, the binding result in test [2] is listed as “no binding”.

B13: Ab53 (antibody, human IgG1, V domains shown)
VH: B12 VH
VL: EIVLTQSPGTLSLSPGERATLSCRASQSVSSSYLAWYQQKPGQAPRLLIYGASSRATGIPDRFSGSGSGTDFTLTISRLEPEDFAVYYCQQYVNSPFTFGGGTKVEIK
notes: human IgG1
In the test with mouse TREM2 on cells, B13 registered an MFI of 843 MFI. Moreover, the Kd in test [1] amounted to 0.635 nM; in test [3], 21.6 nM. Moreover, the binding result in test [2] is recorded as “no binding”.

B14: Ab2 (antibody, human IgG1, V domains shown)
VH: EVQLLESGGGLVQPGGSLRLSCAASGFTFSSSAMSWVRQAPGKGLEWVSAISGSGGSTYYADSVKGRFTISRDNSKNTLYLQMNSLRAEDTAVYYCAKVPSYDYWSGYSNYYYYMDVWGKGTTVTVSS
VL: EIVLTQSPATLSVSPGERATLSCRASQSVGSNLAWYQQKPGQAPRLLIYGASTRATGIPARFSGSGSGTEFTLTISSLQSEDFAVYYCQQYFFYPPTFGGGTKVEIK
notes: human IgG1
As for B14, the MFI with mouse TREM2 on cells was 1430 MFI. In addition, the Kd in test [1] is 0.592 nM; in test [3], 24.1 nM. Besides, in test [2], the binding result is reported as “no binding”.

B15: Ab8 (antibody, human IgG1, V domains shown)
VH: QLQLQESGPGLVKPSETLSLTCTVSGGSISSSSYYWGWIRQPPGKGLEWIGSISYSGSTYYNPSLKSRVTISVDTSKNQFSLKLSSVTAADTAVYYCARGPYRLLLGMDVWGQGTTVTVSS
VL: DIQMTQSPSSLSASVGDRVTITCRASQSISSYLNWYQQKPGKAPKLLIYGASSLQSGVPSRFSGSGSGTDFTLTISSLQPEDFATYYCQQIDDTPITFGGGTKVEIK
notes: human IgG1
In the test with mouse TREM2 on cells, B15 gave an MFI of 523 MFI. The results for the Kd in test [1] and in test [3] were 0.723 nM and 15 nM, respectively. Further, the binding result in test [2] is “no binding”.
